# B1: DR1 (dsDNA)
# DNA 1: GATTTGAGGTCAGAGGTCACACAGTT
# DNA 2: AACTGTGTGACCTCTGACCTCAAATC
# B2: IR3 (dsDNA)
# DNA 1: GATTTGAGGTCACAGTGACCTCACAG
# DNA 2: CTGTGAGGTCACTGTGACCTCAAATC
# B3: DR0 (dsDNA)
# DNA 1: GATTTGAGGTCAAGGTCACACAGTTA
# DNA 2: TAACTGTGTGACCTTGACCTCAAATC
# B4: DR4 (dsDNA)
# DNA 1: ATTTGAGGTCACAGGAGGTCACACAG
# DNA 2: CTGTGTGACCTCCTGTGACCTCAAAT
# Key:
# Settings in all cases: protein: recombinant; tags: His6 tag, cleaved by thrombin; chain copies: 2
# [1] = target: T1, NR7 deltaA/B (called full-length NR7), homodimer (Branchiostoma lanceolatum, UniProt A0A6B9UN24 30-389); test: SEC-nMS; Oligos annealed in 10 mM Tris-HCl pH 8.0, 100 mM NaCl, 0.1 mM EDTA; protein dimer:DNA 1:1.2; native 8% PAGE in 60 mM Tris/40 mM CAPS pH 9.4, pre-run at 4 C; SEC-nMS buffer not given in the material
# [2] = target: T1, NR7 deltaA/B (called full-length NR7), …; test: SEC-nMS; NR7 and RXR mixture; Oligos annealed in 10 mM Tris-HCl pH 8.0, 100 mM NaCl, 0.1 mM EDTA; protein dimer:DNA 1:1.2; native 8% PAGE in 60 mM Tris/40 mM CAPS pH 9.4, pre-run at 4 C; SEC-nMS buffer not given in the material
# [3] = target: T1, NR7 deltaA/B (called full-length NR7), …; test: SEC-nMS; homodimer on DNA, 102405 Da; Oligos annealed in 10 mM Tris-HCl pH 8.0, 100 mM NaCl, 0.1 mM EDTA; protein dimer:DNA 1:1.2; native 8% PAGE in 60 mM Tris/40 mM CAPS pH 9.4, pre-run at 4 C; SEC-nMS buffer not given in the material
# T1 sequence (A0A6B9UN24 entry or part of it mutant): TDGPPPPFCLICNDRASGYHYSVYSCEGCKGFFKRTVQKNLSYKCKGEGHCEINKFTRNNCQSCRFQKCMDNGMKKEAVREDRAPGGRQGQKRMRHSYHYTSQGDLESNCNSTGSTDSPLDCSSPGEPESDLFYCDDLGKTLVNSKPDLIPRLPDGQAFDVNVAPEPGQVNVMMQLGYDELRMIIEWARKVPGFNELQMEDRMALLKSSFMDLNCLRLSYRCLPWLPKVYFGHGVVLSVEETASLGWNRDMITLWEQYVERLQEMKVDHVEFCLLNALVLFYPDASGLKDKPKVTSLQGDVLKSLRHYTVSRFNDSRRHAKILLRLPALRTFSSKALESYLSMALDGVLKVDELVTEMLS
binder,measurement,setting,value
B1,binding result,[1],binds
B2,binding result,[2],binds
B3,binding result,[3],binds
B4,binding result,[1],binds

# Source: article PMC9535869, “A novel nuclear receptor subfamily enlightens the origin of heterodimerization”
